Our source for the cell viability and fluorescence in cells values is patent US9339557B2, “Photosensitizer-metal nanoparticle complex and composition containing the complex for photodynamic therapy or diagnosis” (NATIONAL CANCER CENTER, priority 2009, dated 2016).

What all share (assay type): cell-based, human
The test system of one series is BT20 cells. The experiment in a line: Cell viability after photodynamic therapy (MTT), cell line BT20. The note with it: 5 μM equivalent of photosensitizer, 15 hours, +PDT laser 670 nm, 40 mW/cm^2, 10 J/cm^2, MTT after 24 hours. As to the method:
9,000 BT20 cells were seeded in each well of 96-well plates. The next day, the photosensitizer-polypeptide conjugate prepared in Preparation Example 2 and the photosensitizer-metal nanoparticle complex prepared in Preparation Example 2 were diluted with a cell culture medium, thereby preparing an MMP2 probe (MMP2P) solution and a photosensitizer-metal nanoparticle complex (MMP2P-GNR) solution, which have a final concentration corresponding to 5 μM equivalent weight of the photosensitizer. Each solution was added at 200 μl per well to some wells, and the plate was maintained at 37° C. for 15 hours. Meanwhile, for the control group, the same volume of a fresh culture medium in which the photosensitizer was not included was added. Afterwards, the cells were washed twice with a cell culture medium, and for a photodynamic therapy (PDT) group, photodynamic therapy was performed using laser at 670 nm under conditions including a light dose density of 40 mW/cm^2, and a light dose of 10 J/cm^2. After 24 hours, cell viability was measured by MTT analysis.

Series [1] concerns HT1080 cells overexpressing MMP2. The experiment in a line: Fluorescence activation of photosensitizer-metal nanoparticle complex, confocal microscopy. The note with it: HT1080 (MMP2 overexpressing) compared with BT20 (MMP2 underexpressing); 5 μM equivalent of photosensitizer, 15 hours, 37° C.; Ex. 405 nm, Em. 646-753 nm. As to the method:
HT1080 cells (human fibrosarcoma cell line) overexpressing MMP2 and BT20 cells (human mammary adenocarcinoma cell line) underexpressing MMP2 (see Bremer C. et al., Nature Medicine 7(6) 743-748, 2001) were obtained from ATCC (Manassas, Va.). MMP2-positive HT1080 (90,000 cells) and MMP2-negative BT20 cells (90,000 cells) in culture media were seeded into each wells of LabTek II Chambered Coverglass. Afterwards, the photosensitizer-metal nanoparticle complex solution prepared in Preparation Example 2 was diluted with a culture medium to have 5 μM equivalent weight of the photosensitizer, and added at 600 μl per well. The cells were incubated in an incubator at 37° C. for 15 hours. After the culture medium including the complex was removed, and the cells were washed three times with a fresh culture medium, fluorescence was observed using a confocal microscope (Ex. 405 nm, Em. 646-753 nm).

The next series has as its system HT1080 cells. The experiment in a line: Cell viability after photodynamic therapy (MTT), cell line HT1080. The note with it: 5 μM equivalent of photosensitizer, 15 hours, +PDT laser 670 nm, 40 mW/cm^2, 10 J/cm^2, MTT after 24 hours. As to the method:
For in vitro phototoxicity tests 9,000 HT1080 cells were seeded in each well of 96-well plates. The next day, the photosensitizer-polypeptide conjugate (MMP2P) prepared in Preparation Example 2 and the photosensitizer-metal nanoparticle complex (MMP2P-GNR) prepared in Preparation Example 3 were diluted with a cell culture medium, respectively, thereby preparing an MMP2 probe (MMP2P) solution and a photosensitizer-metal nanoparticle complex (MMP2P-GNR) solution, each of which has a final concentration corresponding to 5 μM equivalent weight of the photosensitizer. Each solution was added at 200 μl per well to some wells, and the plate was maintained at 37° C. for 15 hours. Meanwhile, for the control group, the same volume of a fresh culture medium in which the photosensitizer is not included was added to the other wells. Afterwards, the cells were washed twice with a cell culture medium, and for a photodynamic therapy (PDT) group, photodynamic therapy was carried out using laser at 670 nm under conditions including a dose density of 40 mW/cm^2 and a dose of 10 J/cm^2. After 24 hours, cell viability was measured by MTT analysis.

The cell viability is the share of living cells, or the viability signal relative to a control. Turning to MMP2P-GNR (CGGPLGVRGK), the cell viability with BT20 cells is on record as 63%; with HT1080 cells, 16%. In addition, the fluorescence in cells result in series [1] is reported as “much stronger fluorescence”.
